Results taken from the supplement of paper PMC10065799, “High-throughput profiling of sequence recognition by tyrosine kinases and SH2 domains using bacterial peptide display” (eLife, 2023).

Target: EPHB2 (UniProt P29323)
Assay: phosphorylation enrichment, bacterial display (enrichment ratio); higher = better substrate or ligand; peptides without Tyr show the background
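Further: 11-residue human phosphosite peptides and single-mutation variants displayed on the E. coli surface, counted by deep sequencing, each peptide's frequency after selection divided by its frequency in the unselected input library; frequency after pTyr selection over input frequency; kinase dosed for 20-30% of maximal phosphorylation in three min.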

Chain of EPHB2 (P29323 whole entry, looked up): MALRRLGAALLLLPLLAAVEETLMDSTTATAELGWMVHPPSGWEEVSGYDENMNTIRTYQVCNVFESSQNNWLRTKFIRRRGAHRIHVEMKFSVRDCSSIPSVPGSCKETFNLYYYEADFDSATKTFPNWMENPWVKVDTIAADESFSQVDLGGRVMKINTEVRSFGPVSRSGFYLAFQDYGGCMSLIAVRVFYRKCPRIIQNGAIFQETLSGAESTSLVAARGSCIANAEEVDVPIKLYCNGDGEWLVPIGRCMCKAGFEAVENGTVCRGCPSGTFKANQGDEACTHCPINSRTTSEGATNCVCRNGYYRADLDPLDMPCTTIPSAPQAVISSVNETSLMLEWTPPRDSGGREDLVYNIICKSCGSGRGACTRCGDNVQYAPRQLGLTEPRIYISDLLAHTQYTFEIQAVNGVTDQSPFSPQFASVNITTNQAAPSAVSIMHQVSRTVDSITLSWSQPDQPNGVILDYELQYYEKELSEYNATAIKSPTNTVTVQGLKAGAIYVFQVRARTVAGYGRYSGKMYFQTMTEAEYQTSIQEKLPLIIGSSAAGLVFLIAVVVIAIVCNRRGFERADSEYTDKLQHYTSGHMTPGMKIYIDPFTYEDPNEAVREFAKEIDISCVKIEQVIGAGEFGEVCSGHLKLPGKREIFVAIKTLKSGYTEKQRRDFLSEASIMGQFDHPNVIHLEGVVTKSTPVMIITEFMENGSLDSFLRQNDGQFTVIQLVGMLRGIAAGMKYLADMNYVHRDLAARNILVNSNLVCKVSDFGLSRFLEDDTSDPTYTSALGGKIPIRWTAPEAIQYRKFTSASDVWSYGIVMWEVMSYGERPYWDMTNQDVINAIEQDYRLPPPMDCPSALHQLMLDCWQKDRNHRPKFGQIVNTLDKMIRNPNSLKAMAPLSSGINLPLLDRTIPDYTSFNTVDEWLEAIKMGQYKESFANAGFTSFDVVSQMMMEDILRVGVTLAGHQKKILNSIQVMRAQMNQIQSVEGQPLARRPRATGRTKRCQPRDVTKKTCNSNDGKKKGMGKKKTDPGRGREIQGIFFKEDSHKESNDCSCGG

Sequence | phosphorylation enrichment
SLNEGYARDFD [FBP1_Y216] | 0.573
SYPREYGSQEG [RBM10_Y48] | 0.487
CSRCFYQLTKL [AR_Y858_R856C] | 0.459
SSAAGYACLAY [MVD_Y131] | 0.615
QNTADYFDLFG [PTPN11_Y62_G60A_YF] | 13.8
DNAFQYMLTDR [MYH7_Y164_YF] | 0.496
GDFLSYREFHL [ERBIN_Y1107_S1112L_YF] | 0.527
VGTTAYVAPEA [IRAK4_Y354_M355V] | 0.445
IEEGTYGVVFR [CDK11B_Y449_YF] | 7.66
PQGVGYPQQQQ [EP300_Y2219_P2221Q] | 0.435
GIVEDYRPPVY [ACVRL1_Y421_F425V] | 0.547
VTSLKYSTSPY [BRIP1_Y916] | 0.498
CTTIHYNYMCK [TP53_Y234_N239K] | 0.562
RSGIYYKPESL [L2HGDH_Y103_H98R] | 3.34
LEISPYMLSGP [LRRK2_Y1718_R1723P] | 0.633
QLFGAYLRIHA [BSCL2_Y213_YF] | 0.915
CDIARYIVSQL [MAST2_Y461_P459A] | 0.542

Sequence | phosphorylation enrichment
GNLLIYTELGK [HGD_Y166_F169L] | 2.57
KRAIGYFSATS [FAM120A_Y327_YF] | 0.426
KTVQDYLKKFF [MMP8_Y36_E38K_YF] | 0.371
YEKFLYFLPAS [DYNC2H1_Y346_H341Y] | 0.644
VPVNGYQPVPA [ROR2_Y824] | 0.391
CIILLYIFLKN [STXBP1_Y411_R406C] | 0.275
TNRSVYFKPSL [NUP153_Y382] | 0.369
GHPYAYDWISI [BEST1_Y227_L224P] | 1.07
STFVPYEIKVQ [L1CAM_Y784] | 0.512
FRQNVYIPGSN [PCDHGA1_Y895_YF] | 0.442
QEALEYFMKQI [PIK3CA_Y1038_M1043I] | 0.547
QKNVSYVSRVS [TASOR_Y1043_T1046R] | 0.564
TFGQVYKGRHV [TNIK_Y40_YF] | 0.367
IMVFVYCRVFQ [ADRB2_Y219_S220C] | 0.488
REGKIYEYNQV [ZNF665_Y162_H157R] | 0.929
NTGGFYDLFGG [PTPN11_Y63_D61G_YF] | 0.899

Target: EPHB1 (UniProt P54762)
Assay: as above

Chain of EPHB1 (P54762 whole entry, looked up): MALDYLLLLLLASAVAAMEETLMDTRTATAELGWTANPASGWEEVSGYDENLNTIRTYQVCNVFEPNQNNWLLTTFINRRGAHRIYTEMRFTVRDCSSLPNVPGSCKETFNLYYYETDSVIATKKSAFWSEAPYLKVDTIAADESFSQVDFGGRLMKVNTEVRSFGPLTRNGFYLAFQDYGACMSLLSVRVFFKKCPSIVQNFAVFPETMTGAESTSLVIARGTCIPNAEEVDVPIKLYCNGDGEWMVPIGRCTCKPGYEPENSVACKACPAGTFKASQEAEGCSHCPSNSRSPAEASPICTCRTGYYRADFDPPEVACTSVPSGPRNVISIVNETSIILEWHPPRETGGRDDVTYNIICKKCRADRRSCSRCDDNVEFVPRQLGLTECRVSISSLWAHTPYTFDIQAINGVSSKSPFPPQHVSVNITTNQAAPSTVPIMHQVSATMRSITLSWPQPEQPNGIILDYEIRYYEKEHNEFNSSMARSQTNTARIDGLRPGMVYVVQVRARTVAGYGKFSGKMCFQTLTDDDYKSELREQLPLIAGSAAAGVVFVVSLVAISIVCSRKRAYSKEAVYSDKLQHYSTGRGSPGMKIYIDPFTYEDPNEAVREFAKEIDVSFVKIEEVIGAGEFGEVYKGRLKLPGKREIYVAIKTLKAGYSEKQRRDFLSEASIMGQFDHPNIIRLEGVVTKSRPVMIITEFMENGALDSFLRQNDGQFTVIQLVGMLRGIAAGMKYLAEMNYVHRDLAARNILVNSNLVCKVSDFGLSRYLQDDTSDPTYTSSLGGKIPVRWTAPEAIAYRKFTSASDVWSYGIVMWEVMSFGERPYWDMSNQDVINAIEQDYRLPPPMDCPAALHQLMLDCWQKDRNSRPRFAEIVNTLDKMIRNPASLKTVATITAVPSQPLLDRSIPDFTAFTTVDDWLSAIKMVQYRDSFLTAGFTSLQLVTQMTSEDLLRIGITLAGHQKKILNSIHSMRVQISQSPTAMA

Sequence | phosphorylation enrichment
SLNEGYARDFD [FBP1_Y216] | 0.505
SYPREYGSQEG [RBM10_Y48] | 0.515
CSRCFYQLTKL [AR_Y858_R856C] | 0.45
SSAAGYACLAY [MVD_Y131] | 0.553
QNTADYFDLFG [PTPN11_Y62_G60A_YF] | 15.8
DNAFQYMLTDR [MYH7_Y164_YF] | 0.44
GDFLSYREFHL [ERBIN_Y1107_S1112L_YF] | 0.599
VGTTAYVAPEA [IRAK4_Y354_M355V] | 0.558
IEEGTYGVVFR [CDK11B_Y449_YF] | 2.76
PQGVGYPQQQQ [EP300_Y2219_P2221Q] | 0.591
GIVEDYRPPVY [ACVRL1_Y421_F425V] | 0.524
VTSLKYSTSPY [BRIP1_Y916] | 0.52
CTTIHYNYMCK [TP53_Y234_N239K] | 0.54
RSGIYYKPESL [L2HGDH_Y103_H98R] | 2.37
LEISPYMLSGP [LRRK2_Y1718_R1723P] | 0.753
QLFGAYLRIHA [BSCL2_Y213_YF] | 1.17
CDIARYIVSQL [MAST2_Y461_P459A] | 0.594

Sequence | phosphorylation enrichment
GNLLIYTELGK [HGD_Y166_F169L] | 3.98
KRAIGYFSATS [FAM120A_Y327_YF] | 0.345
KTVQDYLKKFF [MMP8_Y36_E38K_YF] | 0.473
YEKFLYFLPAS [DYNC2H1_Y346_H341Y] | 0.764
VPVNGYQPVPA [ROR2_Y824] | 0.554
CIILLYIFLKN [STXBP1_Y411_R406C] | 0.441
TNRSVYFKPSL [NUP153_Y382] | 0.453
GHPYAYDWISI [BEST1_Y227_L224P] | 1.65
STFVPYEIKVQ [L1CAM_Y784] | 0.564
FRQNVYIPGSN [PCDHGA1_Y895_YF] | 0.43
QEALEYFMKQI [PIK3CA_Y1038_M1043I] | 0.845
QKNVSYVSRVS [TASOR_Y1043_T1046R] | 0.683
TFGQVYKGRHV [TNIK_Y40_YF] | 0.401
IMVFVYCRVFQ [ADRB2_Y219_S220C] | 0.424
REGKIYEYNQV [ZNF665_Y162_H157R] | 0.716
NTGGFYDLFGG [PTPN11_Y63_D61G_YF] | 0.829

Tested on: Fer (mouse)
Assay: as above

Sequence | phosphorylation enrichment
SLNEGYARDFD [FBP1_Y216] | 0.554
SYPREYGSQEG [RBM10_Y48] | 0.414
CSRCFYQLTKL [AR_Y858_R856C] | 1.85
SSAAGYACLAY [MVD_Y131] | 0.574
QNTADYFDLFG [PTPN11_Y62_G60A_YF] | 0.951
DNAFQYMLTDR [MYH7_Y164_YF] | 0.472
GDFLSYREFHL [ERBIN_Y1107_S1112L_YF] | 0.737
VGTTAYVAPEA [IRAK4_Y354_M355V] | 0.424
IEEGTYGVVFR [CDK11B_Y449_YF] | 6.28
PQGVGYPQQQQ [EP300_Y2219_P2221Q] | 0.441
GIVEDYRPPVY [ACVRL1_Y421_F425V] | 0.479
VTSLKYSTSPY [BRIP1_Y916] | 0.451
CTTIHYNYMCK [TP53_Y234_N239K] | 0.5
RSGIYYKPESL [L2HGDH_Y103_H98R] | 0.699
LEISPYMLSGP [LRRK2_Y1718_R1723P] | 2.63
QLFGAYLRIHA [BSCL2_Y213_YF] | 0.837
CDIARYIVSQL [MAST2_Y461_P459A] | 0.505

Sequence | phosphorylation enrichment
GNLLIYTELGK [HGD_Y166_F169L] | 0.986
KRAIGYFSATS [FAM120A_Y327_YF] | 0.327
KTVQDYLKKFF [MMP8_Y36_E38K_YF] | 0.563
YEKFLYFLPAS [DYNC2H1_Y346_H341Y] | 0.581
VPVNGYQPVPA [ROR2_Y824] | 0.52
CIILLYIFLKN [STXBP1_Y411_R406C] | 0.406
TNRSVYFKPSL [NUP153_Y382] | 0.433
GHPYAYDWISI [BEST1_Y227_L224P] | 17.5
STFVPYEIKVQ [L1CAM_Y784] | 0.527
FRQNVYIPGSN [PCDHGA1_Y895_YF] | 0.402
QEALEYFMKQI [PIK3CA_Y1038_M1043I] | 0.599
QKNVSYVSRVS [TASOR_Y1043_T1046R] | 0.764
TFGQVYKGRHV [TNIK_Y40_YF] | 0.33
IMVFVYCRVFQ [ADRB2_Y219_S220C] | 0.435
REGKIYEYNQV [ZNF665_Y162_H157R] | 15.9
NTGGFYDLFGG [PTPN11_Y63_D61G_YF] | 3.82

Target: FGFR3 (UniProt P22607)
Assay: as above

Chain of FGFR3 (P22607 whole entry, looked up): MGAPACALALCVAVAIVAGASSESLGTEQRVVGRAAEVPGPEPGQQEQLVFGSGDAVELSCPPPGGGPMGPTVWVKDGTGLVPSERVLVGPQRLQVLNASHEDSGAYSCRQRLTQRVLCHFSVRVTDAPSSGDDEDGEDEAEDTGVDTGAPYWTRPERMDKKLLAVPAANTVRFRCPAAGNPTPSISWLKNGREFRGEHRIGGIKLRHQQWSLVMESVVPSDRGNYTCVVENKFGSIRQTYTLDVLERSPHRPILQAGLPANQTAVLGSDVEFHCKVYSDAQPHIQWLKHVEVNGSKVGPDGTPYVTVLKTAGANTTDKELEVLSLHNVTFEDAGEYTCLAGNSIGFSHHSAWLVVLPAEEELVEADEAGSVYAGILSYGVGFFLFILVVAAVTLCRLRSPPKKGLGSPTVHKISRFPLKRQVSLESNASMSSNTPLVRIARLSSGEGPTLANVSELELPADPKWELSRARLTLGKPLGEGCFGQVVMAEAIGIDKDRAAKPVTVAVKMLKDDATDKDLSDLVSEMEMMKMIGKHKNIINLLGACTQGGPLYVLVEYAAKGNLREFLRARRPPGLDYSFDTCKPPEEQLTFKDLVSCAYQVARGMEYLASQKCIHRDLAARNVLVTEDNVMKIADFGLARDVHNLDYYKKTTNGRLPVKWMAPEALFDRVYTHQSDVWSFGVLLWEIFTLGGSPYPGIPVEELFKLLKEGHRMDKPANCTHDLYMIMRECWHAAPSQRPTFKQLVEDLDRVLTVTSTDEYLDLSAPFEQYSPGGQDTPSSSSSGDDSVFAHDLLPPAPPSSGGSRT

Sequence | phosphorylation enrichment
SLNEGYARDFD [FBP1_Y216] | 0.617
SYPREYGSQEG [RBM10_Y48] | 0.519
CSRCFYQLTKL [AR_Y858_R856C] | 0.587
SSAAGYACLAY [MVD_Y131] | 0.736
QNTADYFDLFG [PTPN11_Y62_G60A_YF] | 16.9
DNAFQYMLTDR [MYH7_Y164_YF] | 0.584
GDFLSYREFHL [ERBIN_Y1107_S1112L_YF] | 0.792
VGTTAYVAPEA [IRAK4_Y354_M355V] | 0.507
IEEGTYGVVFR [CDK11B_Y449_YF] | 0.961
PQGVGYPQQQQ [EP300_Y2219_P2221Q] | 0.604
GIVEDYRPPVY [ACVRL1_Y421_F425V] | 0.53
VTSLKYSTSPY [BRIP1_Y916] | 0.467
CTTIHYNYMCK [TP53_Y234_N239K] | 0.61
RSGIYYKPESL [L2HGDH_Y103_H98R] | 3.3
LEISPYMLSGP [LRRK2_Y1718_R1723P] | 0.983
QLFGAYLRIHA [BSCL2_Y213_YF] | 2.28
CDIARYIVSQL [MAST2_Y461_P459A] | 0.733

Sequence | phosphorylation enrichment
GNLLIYTELGK [HGD_Y166_F169L] | 1.19
KRAIGYFSATS [FAM120A_Y327_YF] | 0.467
KTVQDYLKKFF [MMP8_Y36_E38K_YF] | 0.545
YEKFLYFLPAS [DYNC2H1_Y346_H341Y] | 0.91
VPVNGYQPVPA [ROR2_Y824] | 0.517
CIILLYIFLKN [STXBP1_Y411_R406C] | 0.531
TNRSVYFKPSL [NUP153_Y382] | 0.447
GHPYAYDWISI [BEST1_Y227_L224P] | 6.75
STFVPYEIKVQ [L1CAM_Y784] | 0.629
FRQNVYIPGSN [PCDHGA1_Y895_YF] | 0.501
QEALEYFMKQI [PIK3CA_Y1038_M1043I] | 0.744
QKNVSYVSRVS [TASOR_Y1043_T1046R] | 0.894
TFGQVYKGRHV [TNIK_Y40_YF] | 0.368
IMVFVYCRVFQ [ADRB2_Y219_S220C] | 0.632
REGKIYEYNQV [ZNF665_Y162_H157R] | 0.898
NTGGFYDLFGG [PTPN11_Y63_D61G_YF] | 0.719
